Data as given in patent publication US8343911B2, “Methods of inhibiting and treating bacterial biofilms by metal chelators” (University of Iowa Research Foundation, priority 2002, dated 2013).

B1: lactoferrin (protein, UniProt P02788 20-710, looked up)
Lactotransferrin: GRRRSVQWCAVSQPEATKCFQWQRNMRKVRGPPVSCIKRDSPIQCIQAIAENRADAVTLDGGFIYEAGLAPYKLRPVAAEVYGTERQPRTHYYAVAVVKKGGSFQLNELQGLKSCHTGLRRTAGWNVPIGTLRPFLNWTGPPEPIEAAVARFFSASCVPGADKGQFPNLCRLCAGTGENKCAFSSQEPYFSYSGAFKCLRDGAGDVAFIRESTVFEDLSDEAERDEYELLCPDNTRKPVDKFKDCHLARVPSHAVVARSVNGKEDAIWNLLRQAQEKFGKDKSPKFQLFGSPSGQKDLLFKDSAIGFSRVPPRIDSGLYLGSGYFTAIQNLRKSEEEVAARRARVVWCAVGEQELRKCNQWSGLSEGSVTCSSASTTEDCIALVLKGEADAMSLDGGYVYTAGKCGLVPVLAENYKSQQSSDPDPNCVDRPVEGYLAVAVVRRSDTSLTWNSVKGKKSCHTAVDRTAGWNIPMGLLFNQTGSCKFDEYFSQSCAPGSDPRSNLCALCIGDEQGENKCVPNSNERYYGYTGAFRCLAENAGDVAFVKDVTVLQNTDGNNNEAWAKDLKLADFALLCLDGKRKPVTEARSCHLAMAPNHAVVSRMDKVERLKQVLLHQQAKFGRNGSDCPDKFCLFQSETKNLLFNDNTECLARLHGKTTYEKYLGPQYVAGITNLKKCSTSPLLEACEFLRK
notes: known iron chelating protein (Sigma Chemical Co.), proteinaceous metal chelator
B2: lactoferrin (protein, UniProt P02788 20-710, looked up)
Lactotransferrin: B1 Lactotransferrin
modifications: iron-saturated
notes: lactoferrin in the iron-saturated state
B3: conalbumin (protein, UniProt P02789 20-705, looked up)
Ovotransferrin: APPKSVIRWCTISSPEEKKCNNLRDLTQQERISLTCVQKATYLDCIKAIANNEADAISLDGGQAFEAGLAPYKLKPIAAEVYEHTEGSTTSYYAVAVVKKGTEFTVNDLQGKTSCHTGLGRSAGWNIPIGTLLHRGAIEWEGIESGSVEQAVAKFFSASCVPGATIEQKLCRQCKGDPKTKCARNAPYSGYSGAFHCLKDGKGDVAFVKHTTVNENAPDQKDEYELLCLDGSRQPVDNYKTCNWARVAAHAVVARDDNKVEDIWSFLSKAQSDFGVDTKSDFHLFGPPGKKDPVLKDLLFKDSAIMLKRVPSLMDSQLYLGFEYYSAIQSMRKDQLTPSPRENRIQWCAVGKDEKSKCDRWSVVSNGDVECTVVDETKDCIIKIMKGEADAVALDGGLVYTAGVCGLVPVMAERYDDESQCSKTDERPASYFAVAVARKDSNVNWNNLKGKKSCHTAVGRTAGWVIPMGLIHNRTGTCNFDEYFSEGCAPGSPPNSRLCQLCQGSGGIPPEKCVASSHEKYFGYTGALRCLVEKGDVAFIQHSTVEENTGGKNKADWAKNLQMDDFELLCTDGRRANVMDYRECNLAEVPTHAVVVRPEKANKIRDLLERQEKRFGVNGSEKSKFMMFESQNKDLLFKDLTKCLFKVREGTTYKEFLGDKFYTVISSLKTCNPSDILQMCSFLEGK
notes: a lactoferrin-like chicken egg host defense protein; iron chelating protein, tested Fe-unsaturated and Fe-saturated

Key:
Type in all cases: cell-based
[1] = test system: P. aeruginosa strain PAO1; assay: Growth of free swimming P. aeruginosa in biofilm medium containing lactoferrin (plate counting)
Procedure: (§1) P. aeruginosa strain PAO1 containing the GFP plasmid pMRP9-1 was used for most studies. Where indicated, an isogenic surface motility mutant (a PA01 deletion mutant from J. Kato (Department of Fermentation Technology, Hiroshima University, Hiroshima, Japan.) containing pMRP9-1 was used. Biofilm medium consisted of 1% Trypticase Soy Broth (Difco, Detroit, Mich.). In the growth experiments, approximately 10^3 bacteria from an overnight culture were added to 5 ml of biofilm medium containing the indicated concentrations of lactoferrin (Sigma Chemical Co., St Louis, Mo.). Cultures were incubated in acid-washed tubes at 37° C. with shaking. Colony-forming units were determined by plate counting. […] P. aeruginosa with pMRP9-1 was also grown in lactoferrin-containing effluent medium from flow cells. After one day of bacterial growth, effluent was collected on ice, filter sterilized, and growth was assessed as above.

[2] = test system: wild-type P. aeruginosa PAO1; assay: Biofilm formation in continuous culture flow cells (confocal microscopy); conditions: for effect on biofilm development / formation / effect on biofilm formation, iron-saturated protein: 20 μg/ml, flow cells; for effect on biofilm development / formation: Fe-unsaturated protein, up to day 7; for effect on biofilm formation, iron-saturated protein: Fe-saturated protein
Procedure: (§2) For studies of biofilm formation, wild-type P. aeruginosa PAO1 and the surface motility mutant were grown in flow cells similar to those described previously; the size of the flow channel was 5×35×1 mm. An overnight culture diluted to 10^7 cells per ml in fresh biofilm medium was used as the inoculum and flow was arrested for 45 min. Flow of biofilm medium with and without 20 μg/ml of Fe-unsaturated or Fe-saturated lactoferrin or conalbumin (Sigma Chemical Co.) was then initiated at a rate of 170 μl/min. Images were obtained using a Biorad (Hercules, Calif.) scanning confocal microscope.

P. aeruginosa [3] = assay: Dividing times of attached bacteria in flow cells (time-lapse microscopy)
Procedure: as §2
(§3) Bacterial movement was assessed by using time-lapse images acquired at 1 min intervals. Motion of bacterial cells was traced visually by following individual cells. VOXblast software (VayTek, Inc, Fairfield, Iowa) was used to obtain the X-Y coordinates of bacterial cells.
(§4) Bacterial behaviors were classified as follows. Squatters remained within a 15 μm circle drawn around the point of parental cell division until the time of its cell division. Ramblers remained attached to the growth surface, but moved outside the circle. Flyers detached and were carried away by media flow. Dividing times of attached bacteria were measured by counting the number of frames between cell divisions; 60 bacterial divisions were observed and the dividing times were averaged.

P. aeruginosa [4] = assay: Bacterial movement and behaviors (squatters, ramblers, flyers) in flow cells; conditions: in the presence of lactoferrin; 40 parental cells, three generations; FIG. 3c,d
Procedure: as §3, §4

[5] = test system: P. aeruginosa surface motility mutant (PA01 deletion mutant); assay: Biofilm formation of surface motility mutant in flow cells; conditions: in the presence of lactoferrin, FIG. 4e,f
Procedure: as §1

P. aeruginosa biofilms = assay: Antimicrobial susceptibility of biofilms grown in rotating disk reactor (viable cell counts); conditions: Fe-unsaturated conalbumin during 48 h biofilm growth
Procedure: P. aeruginosa biofilms for susceptibility tests were grown in a rotating disk reactor. Fe-unsaturated conalbumin (Sigma Chemical Co.) was added to standard biofilm medium at indicated concentrations for the duration of biofilm growth. Discs and attached bacteria were then washed 3 times in distilled water, and treated for 4 h in 1 ml of H2O2 (Fisher Scientific) or tobramycin (Eli Lilly, Indianapolis, Ind.) at indicated concentrations. The treated discs were washed 3 times, and bacteria were removed and dispersed in 2 ml sterile PBS by homogenization (Brinkman Homogenizer, model 10/35). Viable cell numbers were enumerated by plate counting.

Molecule	effect on growth rate of free swimming P. aeruginosa PAO1 ([1]; 20 μg/ml lactoferrin (sub-inhibitory), FIG. 1)	concentration of lactoferrin that inhibited bacterial growth ([1]; biofilm medium, 37° C. with shaking, varied for different lots) [µg/mL]	number of doublings in lactoferrin-containing effluent (conditioned) medium from flow cells ([1]; in 22 h, spent lactoferrin-treated medium) [times]	effect on biofilm development / formation [2]	effect on biofilm development / formation ([2]; listed as Lactoferrin)	effect on structure of mature biofilms ([2]; 5 day-old biofilms exposed to lactoferrin-containing medium for 48 h)	increase of dividing time of attached cells (P. aeruginosa [3]; 20 μg/ml lactoferrin vs. without) [%]	effect on growth of attached cells (P. aeruginosa [3]; concentration of lactoferrin that prevents biofilm formation)	dividing time of attached cells (P. aeruginosa [3]; with 20 μg/ml lactoferrin, average of 60 divisions) [min]	proportion of bacteria as squatters, ramblers, flyers (P. aeruginosa [4])	biofilm formation by surface motility mutant [5]	effect on biofilm formation, iron-saturated protein [2]	effect of growth in conalbumin on biofilm resistance to H2O2 (P. aeruginosa biofilms; then H2O2 4 h)	effect of growth in conalbumin on biofilm resistance to tobramycin (P. aeruginosa biofilms; then tobramycin 4 h)
B1	did not affect the growth rate	≥ 30	6	differentiated biofilm formation was completely blocked	disrupted this pattern of development	failed to alter their structure	27	only slightly reduced the growth of attached cells	127	a significantly larger proportion of cells exhibited rambling behavior and fewer were squatters	formed microcolonies and irregularly shaped biofilms in both the absence and presence of lactoferrin			
B2												did not prevent P. aeruginosa biofilm formation		
B3				prevented biofilm formation in the iron-unsaturated state								not when iron-saturated	decreased resistance to both agents in a dose-dependent manner	decreased resistance to both agents in a dose-dependent manner
